Measured values from PMC9864903, “Imaging of the Glucose-Dependent Insulinotropic Polypeptide Receptor Using a Novel Radiolabeled Peptide Rationally Designed Based on Endogenous GIP and Synthetic Exendin-4 Sequences” (Pharmaceuticals, 2022).

How the values were obtained:
[1] = human predicted dosimetry extrapolated from rat organ distribution (OLINDA/EXM 1.1)
Procedure: The predicted dosimetry in humans was calculated using [^68Ga]Ga-C803-GIP organ distribution data obtained in healthy male Sprague Dawley rats. The rat decay-uncorrected SUVs (SUVA) in various organs were normalized to the whole-body adult reference phantom weights (Equation (2)) in order to assess the residence times (MBq-h/MBq) of the tracer in those organs. The data from the measured time points (5, 10, 20, 40, 60, 90, 120, and 180 min) were used for trapezoidal approximation followed by the extrapolation from the last point to infinity by a single exponential fit. The bone marrow blood volume model was used for the determination of the residence time in bone marrow. The absorbed doses were calculated using OLINDA/EXM version 1.1 with reference to adult male and female phantoms (International Commission on Radiological Protection 60). (2) [%/organ]human=SUVA×(gorgan/kgweight)human

[2] = type: in vitro ADME; conditions: 37 °C, polyacrylamide gel electrophoresis with autoradiography
Procedure: Stability of [^68Ga]Ga-GIP-C803 was studied in human plasma, wherein the agent was incubated at 37 °C for under 30 s, 5 min, 45 min, and 90 min. Thereafter, the samples were analyzed by polyacrylamide gel electrophoresis. To enable the interpretation of the results, a number of references were applied along with the molecular weight marker (Figure S2). The gel was imaged by GelDoc Go Imaging System (Biorad, Hercules, CA, USA) for protein/peptide signals and, thereafter, exposed to a phosphor-imager screen overnight and digitalized using the Cyclone Phosphor Imager system (PerkinElmer) for radioactivity signals. The amount of the sample radioactivity loaded on the gel was controlled by a reference drop of the same sample volume on a filter paper exposed to the same screen. The images were analyzed by ImageJ (NIH, Bethesda, MD, USA) and Image Lab (Biorad) software.
Radiolabeling of C803‐GIP
Figure 1S. Typical HPLC-chromatograms with UV absorption profile (lower panel) and radioactivity signal profile (upper panel) of [68Ga]Ga-C803-GIP.
Stability of [68Ga]Ga‐GIP‐C803 in human plasma
Stability of [68Ga]Ga-GIP-C803 was studied in human plasma, wherein the agent was incubated at 37 °C for under 30 seconds, 5 min, 45 min and 90 min. Thereafter, the samples were analyzed by polyacrylamide gel electrophoresis. […] The images were analyzed by ImageJ (NIH, US) and Image Lab (Biorad) software. […]

Compound: CC[C@H](C)[C@H](NC(=O)[C@H](CO)NC(=O)[C@H](Cc1ccc(O)cc1)NC(=O)[C@H](CC(=O)O)NC(=O)[C@H](CO)NC(=O)[C@@H](NC(=O)[C@H](Cc1ccccc1)NC(=O)[C@@H](NC(=O)CNC(=O)[C@H](CCC(=O)O)NC(=O)[C@@H](C)NC(=O)[C@@H](N)Cc1ccc(O)cc1)[C@@H](C)O)[C@@H](C)CC)C(=O)N[C@@H](C)C(=O)N[C@@H](CC(C)C)C(=O)N[C@@H](CC(=O)O)C(=O)N[C@@H](CCCCN)C(=O)N[C@H](C(=O)N[C@@H](Cc1c[nH]cn1)C(=O)N[C@@H](CCC(N)=O)C(=O)N[C@@H](CCC(N)=O)C(=O)N[C@@H](CCC(=O)O)C(=O)N[C@@H](Cc1ccccc1)C(=O)N[C@H](C(=O)N[C@@H](CCC(=O)O)C(=O)N[C@@H](Cc1c[nH]c2ccccc12)C(=O)N[C@@H](CC(C)C)C(=O)N[C@@H](CCCCN)C(=O)N[C@@H](C)C(=O)NCC(=O)NCC(=O)N[C@@H](Cc1c[nH]cn1)C(=O)N1CCC[C@H]1C(=O)N[C@@H](CO)C(=O)NCC(=O)N[C@@H](C)C(=O)N1CCC[C@H]1C(=O)N1CCC[C@H]1C(=O)N1CCC[C@H]1C(=O)N[C@@H](CO)C(=O)N[C@@H](CSCCS(=O)(=O)CCN1CCN(CC(=O)O)CCN(CC(=O)O)CCN(CC(=O)O)CC1)C(N)=O)[C@@H](C)CC)[C@@H](C)CC [[^68Ga]Ga-C803-GIP, metal not drawn]
- predicted absorbed radiation dose, kidneys, females ([1]; human): 0.773 mGy/MBq
- predicted absorbed radiation dose, kidneys, males ([1]; human): 0.713 mGy/MBq
- Equivalent dose, Adrenals, Female ([1]; human female phantom): 0.0124 mSv/MBq
- Equivalent dose, Brain, Female ([1]; human female phantom): 0.000658 mSv/MBq
- Equivalent dose, Breasts, Female ([1]; human female phantom): 0.00113 mSv/MBq
- Equivalent dose, Gallbladder Wall, Female ([1]; human female phantom): 0.00555 mSv/MBq
- Equivalent dose, Heart Wall, Female ([1]; human female phantom): 0.0362 mSv/MBq
- Equivalent dose, Kidneys, Female ([1]; human female phantom): 0.773 mSv/MBq
- Equivalent dose, LLI Wall, Female ([1]; human female phantom): 0.00196 mSv/MBq
- Equivalent dose, Liver, Female ([1]; human female phantom): 0.00754 mSv/MBq
- Equivalent dose, Lungs, Female ([1]; human female phantom): 0.0073 mSv/MBq
- Equivalent dose, Muscle, Female ([1]; human female phantom): 0.00306 mSv/MBq
- Equivalent dose, Osteogenic Cells, Female ([1]; human female phantom): 0.0145 mSv/MBq
- Equivalent dose, Pancreas, Female ([1]; human female phantom): 0.0089 mSv/MBq
- Equivalent dose, Red Marrow, Female ([1]; human female phantom): 0.0135 mSv/MBq
- Equivalent dose, Skin, Female ([1]; human female phantom): 0.001 mSv/MBq
- Equivalent dose, Small Intestine, Female ([1]; human female phantom): 0.00398 mSv/MBq
- Equivalent dose, Spleen, Female ([1]; human female phantom): 0.0124 mSv/MBq
- Equivalent dose, Stomach Wall, Female ([1]; human female phantom): 0.00374 mSv/MBq
- Equivalent dose, Testes/Ovaries, Female ([1]; human female phantom): 0.00189 mSv/MBq
- Equivalent dose, Thymus, Female ([1]; human female phantom): 0.00198 mSv/MBq
- Equivalent dose, Thyroid, Female ([1]; human female phantom): 0.000543 mSv/MBq
- Equivalent dose, ULI Wall, Female ([1]; human female phantom): 0.00371 mSv/MBq
- Equivalent dose, Urinary Bladder Wall, Female ([1]; human female phantom): 0.00202 mSv/MBq
- Equivalent dose, Adrenals, Male ([1]; human male phantom): 0.00936 mSv/MBq
- Equivalent dose, Brain, Male ([1]; human male phantom): 0.000541 mSv/MBq
- Equivalent dose, Breasts, Male ([1]; human male phantom): 0.000934 mSv/MBq
- Equivalent dose, Gallbladder Wall, Male ([1]; human male phantom): 0.00515 mSv/MBq
- Equivalent dose, Heart Wall, Male ([1]; human male phantom): 0.0319 mSv/MBq
- Equivalent dose, Kidneys, Male ([1]; human male phantom): 0.713 mSv/MBq
- Equivalent dose, LLI Wall, Male ([1]; human male phantom): 0.00166 mSv/MBq
- Equivalent dose, Liver, Male ([1]; human male phantom): 0.006 mSv/MBq
- Equivalent dose, Lungs, Male ([1]; human male phantom): 0.00576 mSv/MBq
- Equivalent dose, Muscle, Male ([1]; human male phantom): 0.00227 mSv/MBq
- Equivalent dose, Osteogenic Cells, Male ([1]; human male phantom): 0.0109 mSv/MBq
- Equivalent dose, Pancreas, Male ([1]; human male phantom): 0.00777 mSv/MBq
- Equivalent dose, Red Marrow, Male ([1]; human male phantom): 0.014 mSv/MBq
- Equivalent dose, Skin, Male ([1]; human male phantom): 0.000859 mSv/MBq
- Equivalent dose, Small Intestine, Male ([1]; human male phantom): 0.0031 mSv/MBq
- Equivalent dose, Spleen, Male ([1]; human male phantom): 0.0101 mSv/MBq
- Equivalent dose, Stomach Wall, Male ([1]; human male phantom): 0.00335 mSv/MBq
- Equivalent dose, Testes/Ovaries, Male ([1]; human male phantom): 0.00137 mSv/MBq
- Equivalent dose, Thymus, Male ([1]; human male phantom): 0.00178 mSv/MBq
- Equivalent dose, Thyroid, Male ([1]; human male phantom): 0.000487 mSv/MBq
- Equivalent dose, ULI Wall, Male ([1]; human male phantom): 0.00309 mSv/MBq
- Equivalent dose, Urinary Bladder Wall, Male ([1]; human male phantom): 0.00152 mSv/MBq
- Effective dose, Female ([1]; whole-body, human female phantom): 0.0237 mSv/MBq
- Effective dose, Male ([1]; whole-body, human male phantom): 0.0217 mSv/MBq
- time stable in human plasma ([2]; incubated <30 s, 5, 45, 90 min): at least 90 min
- stability in human plasma (in words) ([2]; up to 90 min): stable
